These proteins were tested against pooled human IgG (human IgG1, 2, 3 and 4).

| Protein | Enzyme Activity Endpoint Assay: Fab′2 [ng/µL] | Enzyme Activity Endpoint Assay: Fc [ng/µL] | Enzyme Activity Endpoint Assay: IgG [ng/µL] | Enzyme Activity Endpoint Assay: scIgG [ng/µL] |
| --- | --- | --- | --- | --- |
| PRT-582 (protein) MANQEIRYSKAKPKVITSVWTKGVTPPTQFTKNEDVFHAPYLANQGWYDITKTFNGKDDLLCGAATAGNMLHWWFDQNKEQIERYLKKHPEKQKINFNGEQMFDVKEAIDTKDSQTNSKLFNYFKDKAFPYLSTKHLGVFPDHVIDMFINGYRLSLTNHGPTPVKEQNKDPRGGIFDDVFTRGDQSKLLTSRHDFKEKTLKEISDLIKQELKEGKALGLSHTYANVRINHVINLWGADFDAEGNLVAIYVTDSDSNASIGMKKYYVGVNSAGKVAISAKEIEDDNIGAQVLGLFTLSTGKDIWEKTNLEHHHHHH | 28 | 183 | 329 | 754 |
| PRT-375 (protein) MSQTEDSESLQRLRDIEDFQAEKKKQNVVYTKWLDGVDVKDHDFRKIVDGNEAYYATPLLNGRGFYDINKDFNRDNDKCAAAVAANMFHYWLDRNRDNVDRFLRQNPEKHGIIELPDGQLKLSDFLNTYESDDGYRDKSKLFDFISENFNGPVWTDKLLDNYINGYAYNYKYGRLIEDSTKNTSKINFFKEVFNEKILTNNHSIRNQNELSVLLSEALYTGKAIGLSYGPAGTRHSLGHIISVWGADLDADGNVVAIYVTDSDDKKLTIGDERVGLKRYKISTDDEGRLRLTAYEETHNTGGQIRGLWTLDTGKQAWADYFDKTEQTGTDQAEQ | 170 | 115 | 0 | 180 |
| PRT-553 (protein) MANQEIRYSEETPKTITSIWTKGVTPPTDFIKNEDVLHAPYVANQGWYDITKTFNGKDDLLCGAATAGNMLHWWFDQNKEEIENYLKKHPEKQKINFNGEQMFDVKEAIDTKDSQTDSKLFEYFKDKAFPYLSTKHLGVFPDHVIDMFINGYRLSLTNHGPTPVKRGTKDPRGGIFDAVFTRGDQTKLLTERHDFKEKTLNEISDLIKQELTEGKALGLSHTYANVRINHVINLWGADFNSEGNLEAIYVTDSDSNASIGMKKYYVGVNAAGKVAISAKEIEDDNIGAQVLGLFTLSTGKDIWEQTNLEHHHHHH | 79 | 229 | 111 | 764 |
| PRT-586 (protein) MANQEIRYSEETPKTITSVWTKGVTPPTDFIYNEDVLHAPYIANQGWYDITKTFNGKDDLLCGAATAGNMLHWWFDQNKEQIERYLKKHPEKQKINFNGEQMFDVKEAIDTKDSQTDSKLFEYFKDKAFPYLSTKHLGVFPDHVIDMFINGYRLSLTNHGPTPVKRGTKDPRGGIFDAVFTRGDQSKLLTSRHDFKEKTLNEISDLIKQELTEGKALGLSHTYANVRINHVINLWGADFNAEGNLEAIYVTDSDSNASIGMKKYYVGVNSAGKVAISAKEIEGDNIGAQVLGLFTLSTGQDIWEQTNLEHHHHHH | 478 | 322 | 77 | 458 |
| PRT-576 (protein) MANQEIRYSKATPSTITSVWTKGVTPPENFIYNEDVLHAPYLANQGWYDITKTFNGKDDLLCGAATAGNMLHWWFDQNKEQIERYLKKHPEKQKINFNGEQMFDVKEAIDTKDSQTNSKLFEYFKDKAFPYLSTKHLGVFPDHVIDMFINGYRLSLTNHGPTPVKEQTKDPRGGIFDAVFTRGDQSKLLTSRHDFKEKTLNEISDLIKQELTEGKALGLSHTYANVRINHVINLWGADFNAEGNLEAIYVTDSDSNASIGMKKYYVGVNSAGKVAISAKEIEGDNIGAQVLGLFTLSTGQDIWQQTNLEHHHHHH | 903 | 365 | 0 | 0 |
| PRT-566 (protein) MANQEIRYSEETPSTITSVWTKGVTPPTQFIQNEDVLHAPYIANQGWYDITKTFNGKDDLLCGAATAGNMLHWWFDQNKEQIENYLKKHPEKQKINFNGEQMFDVKEAIDTKDSQTDSALFEYFKDKAFPYLSTKHLGVFPDHVIDMFINGYRLSLTNHGPTPVKRGTKDPRGGIFDAVFTRGDQSKLLTSRHDFKEKTLNEISDLIKQELTEGKALGLSHTYANVRINHVINLWGADFNAEGNLEAIYVTDSDSNASIGMKKYYVGVNSAGKVAISAKEIEGDNIGAQVLGLFTLSTGQDIWNQTNLEHHHHHH | 621 | 366 | 0 | 0 |
| PRT-595 (protein) MANQEIRYSEETPSTITSVWTKGVTPPTDFIQNEDVLHAPYIANQGWYDITKTFNGKDDLLCGAATAGNMLHWWFDQNKEQIENYLKKHPEKQKINFNGEQMFDVKEAIDTKDSQTDSALFEYFKDKAFPYLSTKHLGVFPDHVIDMFINGYRLSLTNHGPTPVKRGTKDPRGGIFDAVFTRGDQSKLLTSRHDFKEKNLNEISDLIKQELTEGKALGLSHTYANVRINHVINLWGADFNAEGNLEAIYVTDSDSNASIGMKKYYVGVNSAGKVAISAKEIEGDNIGAQVLGLFTLSTGQDIWNQTNLEHHHHHH | 1040 | 452 | 0 | 0 |
| PRT-533 (protein) MANQEIRYSSDSEWANKKVWVYGITPPEEGAWKYSTYYLPWKKEYGWYDCNKRNPTADGMMCWAATASNLLHWWIAQNKEYIDLYGDKYKGPDKINFNGEQMFDVKEYIDPLDKPQESDIFQCFIDKSFADLSTKHEAGYGDAGINWFIHGIIPSSPAHGPTPVKLDYPYNPAGYFKDVFPRGDGVVLLGNNGDFKELSKERFNETIKDALKNKKAIGLSIGPVNVRSSHVVTIWGAEFDENGDVSYIYMADNNDRWGVGCIRYQIVYEEGGTYTCYKTEIIPSDRPIPINRLVTLELGEEYWKQTNLEHHHHHH | 0 | 0 | 1140 | 0 |
| PRT-526 (protein) MANQEIRYSEETPKTITSVWTKGVTPPTDFIKNEDVLHAPYIANQGWYDITKTFNGKDDLLCGAATAGNMLHWWFDQNKEEIERYLKKHPEKQKINFNGEQMFDVKEAIDTKDSQTDSALFEYFKDKAFPNLSTKHLGVMPDHVLDMFINGYYLSLGKHGPTPVKRGTKDPRGGIFDAVFTRGDQSKLLTSRHDFKEKTLKEISDLIKQELTEGKALALSHTYANVRINHVINLWGADFDSEGNLEAIYVTDSDSNASIGMKKYYVGVNSAGKVAISAKEIEGDNIGAQVLGLFTLSTGQDIWEQTNLEHHHHHH | 246 | 379 | 110 | 627 |

These proteins were tested against pooled human IgG (human IgG1,2,3 and 4).

| Protein | Enzyme Activity Endpoint Assay: Fab'2 [ng/µL] | Enzyme Activity Endpoint Assay: Fc [ng/µL] | Enzyme Activity Endpoint Assay: IgG [ng/µL] | Enzyme Activity Endpoint Assay: scIgG [ng/µL] |
| --- | --- | --- | --- | --- |
| PRT-189 (protein) MANQEIRYSEVTPYHVTSVWTKGVTPPDHDFANFTQGEDVFHAPYVANQGWYDITKTFNGKDDLLCGAATAGNMLHWWFDQNKDQIKRYLEEHPEKQKINFNGEQMFDVKEAIDTKNHQLDSKLFEYFKEKAFPYLSTKHLGVFPDHVIDMFINGYRLSLTNHGPTPVKEGSKDPRGGIFDAVFTRGDQSKLLTSRHDFKEKNLKEISDLIKKELTEGKALGLSHTYANVRINHVINLWGADFDSNGNLKAIYVTDSDSNASIGMKKYFVGVNSAGKVAISAKEIKEDNIGAQVLGLFTLSTGQDSWNQTN | 469 | 307 | 0 | 101 |
| PRT-190 (protein) MANQEIRYSEVTPYHVTSVWTKGVTPPDHDFRKIVDGEDVFHAPYVANQGWYDITKTFNGKDDLLCGAATAGNMLHWWFDQNKDQIKRYLEEHPEKQKINFNGEQMFDVKEAIDTKNHQLDSKLFEYFKEKAFPYLSTKHLGVFPDHVIDMFINGYRLSLTNHGPTPVKEGSKDPRGGIFDAVFTRGDQSKLLTSRHDFKEKNLKEISDLIKKELTEGKALGLSHTYANVRINHVINLWGADFDSNGNLKAIYVTDSDSNASIGMKKYFVGVNSAGKVAISAKEIKEDNIGAQVLGLFTLSTGQDSWNQTN | 323 | 278 | 76 | 145 |
| PRT-192 (protein) MANQEIRYSEVTPYHVTSVWTKGVTPPANFTQGEDVFHAPYVANQGWYDITKTFNGKDDLLCGAATAGNMLHWWFDQNKDQIKRYLEEHPEKQKINFNGEQMFDVKEAIDTKNHQLDSKLFEYFKEKAFPYLSTKHLGVFPDHVIDMFINGYRLSLTNHGPTPVKEGSKDPRGGIFDAVFTRGDQSKLLTSRHDFKEKNLKEISDLIKKELTEGKALGLSHTYANVRINHVINLWGADFDSNGNLKAIYVTDSDDKKLTISNASIGMKKYFVGVNSAGKVAISAKEIKEDNIGAQVLGLFTLSTGQDSWNQTN | 24 | 204 | 109 | 461 |
| PRT-193 (protein) MANQEIRYSEVTPYHVTSVWTKGVTPPANFTQGEDVFHAPYVANQGWYDITKTFNGKDDLLCGAATAGNMLHWWFDQNKDQIKRYLEEHPEKQKINFNGEQMFDVKEAIDTKNHQLDSKLFEYFKEKAFPYLSTKHLGVFPDHVIDMFINGYRLSLTNHGPTPVKEGSKDPRGGIFDAVFTRGDQSKLLTSRHDFKEKNLKEISDLIKKELTEGKALGLSHTYANVRINHVINLWGADFDSNGNLKAIYVTDSDDKKLTIGDERIGMKKYFVGVNSAGKVAISAKEIKEDNIGAQVLGLFTLSTGQDSWNQTN | 39 | 193 | 181 | 355 |
| PRT-191 (protein) MANQEIRYSEVTPYHVTSVWTKGVTPPANFTQGEDVFHAPYVANQGWYDITKTFNGKDDLLCGAATAGNMLHWWFDQNKDQIKRYLEEHPEKQKINFNGEQMFDVKEAIDTKNHQLDSKLFEYFKEKAFPYLSTKHLGVFPDHVIDMFINGYRLSLTNHGPTPVKEGSKDPRGGIFDAVFTRGDQSKLLTSRHDFKEKNLKEISDLIKKELTEGKALGLSHTYANVRHSINHVINLWGADFDSNGNLKAIYVTDSDSNASIGMKKYFVGVNSAGKVAISAKEIKEDNIGAQVLGLFTLSTGQDSWNQTN | 36 | 183 | 161 | 358 |

Source: patent US20250027068
